Reference: publication PMC9605988, “Juxtaposition of Bub1 and Cdc20 on phosphorylated Mad1 during catalytic mitotic checkpoint complex assembly” (Nature Communications, 2022)
“Also recorded” adds a separate entry of the source.

How the values were obtained:
pMad1CTD homodimer = experiment: AUC-SE (sedimentation equilibrium) of pMad1CTD and Cdc20N; format: binding, human; conditions: for calculated mass of major species (Cdc20N:pMad1CTD): 20 °C, expected 35.7 kDa
Description: Sedimentation equilibrium experiments were carried out in a buffer of 20 mM HEPES pH 7.5, 100 mM NaCl and 1 mM TCEP. Samples were loaded into 12 mm six-sector cells, placed in an An-50Ti rotor and centrifugated at 10,200, 12,200 and 21,000 rpm at 20 °C until equilibrium had been reached using an Optima XL-I analytical ultracentrifuge (Beckman). The data were analysed in SEDPHAT 15.2b[68]. The partial-specific volumes (v-bar) were calculated using Sednterp[69]. The density and viscosity of the buffer were determined with a DMA 4500 M density metre (Anton Parr) and an AMVn viscometer (Anton Paar). Data were plotted with the program GUSSI[70].

[1] = biological target: T1, Mad1CTD (unphosphorylated) (Homo sapiens, UniProt Q9Y6D9); experiment: 1H,15N HSQC / CON NMR titration with unphosphorylated Mad1CTD; format: binding; conditions: residues 616-660 of Mad1CTD in HSQC; N-terminal half of Cdc20N in CON
T1 construct: the C-terminal domain of Mad1 (residue 597–718); made in house
T1 sequence (Q9Y6D9 597-718): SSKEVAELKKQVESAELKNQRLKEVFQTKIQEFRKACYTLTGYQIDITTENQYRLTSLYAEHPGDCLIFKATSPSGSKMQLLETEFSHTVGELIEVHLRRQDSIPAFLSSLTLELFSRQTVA
Description: (§1) Uniformly-labelled proteins were expressed in M9 minimal media (6 g/L Na2HPO4, 3 g/L KH2PO4, 0.5 g/L NaCl) supplemented with 1.7 g/L yeast nitrogen base without NH4Cl and amino acids (Sigma Y1251). 1 g/L ^15NH4Cl and 4 g/L unlabelled glucose were supplemented for ^15N labelling. For ^13C/ ^15N double-labelled samples, unlabelled glucose was replaced with 3 g/L ^13C-glucose. Prior to all NMR experiments, proteins were dialysed into 20 mM HEPES, pH 7.0, 100 mM NaCl and 1 mM TCEP.
The following protein concentrations were used in NMR studies: ^1H,^15N HSQC of Mad1^CTD were collected with a 100 µM sample, whereas a 50 µM sample was used for titrations with Cdc20^N and Cdc20^α1. […] To follow the O-to-C conversion of Mad2, the samples were prepared on ice and monitored using BEST ^1H,^15N-TROSY HSQC. […]
(§2) For binding studies, the relative peak intensities were normalised to the C-terminal residue Ala718 of Mad1^CTD or Gly73 of Cdc20^N and expressed as PIbound/PIfree, with PIfree and PIbound being the peak heights of the free and bound forms, respectively. Weighted chemical shift perturbations were calculated using the equation[63]: Δδ = [(ΔδHNWHN)^2 + (ΔδNWN)^2)^2]^1/2 where ΔδHN and ΔδN are the chemical shift perturbations in ^1H and ^15N dimensions respectively. The weight factors were determined from the average variances of chemical shifts in the BMRB database, where WHN = 1 and WN = 0.16.

[2] = test system: AF488-Bub1CD1:Mad1CTD complex (unphosphorylated); experiment: Fluorescence anisotropy: Cdc20N titrated into preformed AF488-Bub1CD1:Mad1CTD complex; format: binding, human
Description: (§3) All reactions were completed in a buffer of 25 mM HEPES pH 7.75, 1 mM TCEP, 100 mM NaCl, 0.05% (v/v) Tween-20. […] Measurements were performed with a PheraStar plate reader FSX plate reader (BMG Labtech) using an optic module for λex = 485 nm, λem = 520 nm. Reactions were carried out in a total volume of 40 μl at 25 °C in a black, flat-bottom, non-binding surface 384-well plate (Corning). All experiments were performed as technical triplicates and data were analysed in PRISM 9.3.1 (GraphPad Software).

[3] = test system: Mad1CTD R617E/K619D mutant; experiment: SEC-MALS, Cdc20N with Mad1CTD R617E/K619D; format: binding, human; conditions: 1:1.2 ratio Mad1CTD dimer to Cdc20N
Description: (§4) Size-exclusion chromatography coupled with multi-angle static light scattering (SEC-MALS), was performed using an Agilent 1200 series LC system with an online Dawn Helios ii system (Wyatt) equipped with a QELS + module (Wyatt) and an Optilab rEX differential refractive index detector (Wyatt). About 100 μl purified protein at ~3.0 mg/ml was auto-injected onto Superdex 75 or a Superdex 200 Increase 10/300 GL column (GE Healthcare) and run at 0.5 ml/min. The molecular masses were analysed with ASTRA 7.3.0.11 (Wyatt). Data were plotted using Prism 8.4.3 (GraphPad Software, Inc). Purified Cdc20^N and Cdc20^N mutants were incubated with Mad1^CTD wild-type or mutants at a 1:1.2 ratio of Mad1^CTD dimer to Cdc20^N.

pMad1CTD = experiment: 1H,15N HSQC / CON NMR titration with pMad1CTD; format: binding, human; conditions: pMad1CTD
Description: as §1
The following protein concentrations were used in NMR studies: ^1H,^15N HSQC of Mad1^CTD were collected with a 100 µM sample, whereas a 50 µM sample was used for titrations with Cdc20^N and Cdc20^α1. Cdc20^Box1 peptide was added at mM concentrations to minimise dilution during titration. […] Mad1^CTD was concentrated to 3 mM for titrations into Cdc20^N. ^1H,^15N HSQC of Mad2 were collected at 100 µM. All Mad2 NMR samples contain an R133A mutation to prevent Mad2 dimerisation. The C-Mad2 sample additionally contains an L13A mutation which favours the C-Mad2 state. Cdc20^MIM-bound C-Mad2 sample was prepared by adding a 1:2 excess of Cdc20^MIM peptide to an O-Mad2 sample with R133A mutation. To follow the O-to-C conversion of Mad2, the samples were prepared on ice and monitored using BEST ^1H,^15N-TROSY HSQC. The spectra were acquired with 16 scans and a recycle delay of 400 msec, giving an experimental time of 12 min per spectrum.
Mad1^CTD and Mad2 experiments were performed using an in-house 800 MHz Avance III spectrometer and Cdc20^N experiments were performed using an in-house 700 MHz Avance II + spectrometer, both equipped with triple resonance TCI CryoProbes. To retrieve signals that suffer from exchange broadening, we also utilised the Bruker 950 MHz Avance III spectrometer located at MRC Biomedical NMR Centre (Francis Crick Institute). Mad1^CTD and Mad2 spectra were collected at 298 K. Cdc20^N spectra were collected at 278 K to minimise exchange broadening for the largely disordered Cdc20^N.
as §2

[4] = Aggregation or non-specific binding at high concentration in the fluorescence anisotropy assay; format: physicochemical; conditions: further titration of Cdc20N to saturation; total fluorescence intensity
Description: as §3

[5] = biological target: T1, Mad1CTD (unphosphorylated); experiment: SEC-MALS, Cdc20N with unphosphorylated Mad1CTD; format: binding; conditions: 1:1.2 ratio Mad1CTD dimer to Cdc20N
Description: as §4

pMad1CTD (Mad1CTD pT716) = experiment: SEC-MALS, Cdc20N with pMad1CTD; format: binding, human
Description: as §4

[6] = test system: AF488-Bub1CD1:pMad1CTD complex; experiment: Fluorescence anisotropy: Cdc20N titrated into preformed AF488-Bub1CD1:pMad1CTD complex; format: binding, human; conditions: preformed AF488-Bub1CD1:pMad1CTD

B1: Cdc20^N: N-terminal truncation of human Cdc20 (residues 1–73) (protein)
chain: MAQFAFESDLHSLLQLDAPIPNAPPARWQRKAKEAAGPAPSPMRAANRSHSAGRTPGRTPGKSSSKVQTTPSK
modifications: left off: His6, N-terminal, cleaved | MBP, N-terminal, cleaved
pMad1CTD homodimer; 20 µM Mad1CTD + 40 µM Cdc20N
  calculated mass of major species (Cdc20N:pMad1CTD): 32.6 kDa
pMad1CTD homodimer; 20 µM Mad1CTD + 80 µM Cdc20N
  calculated mass of major species (Cdc20N:pMad1CTD): 35.9 kDa
pMad1CTD homodimer; even with four-fold molar excess of Cdc20N
  stoichiometry on pMad1CTD homodimer: only a single copy of Cdc20^N bound
[1]
  NMR signal attenuation / line broadening: Significant signal attenuation; also recorded: substantial signal attenuation
[2]
  change in fluorescence anisotropy on Cdc20N titration (competition test): increased the fluorescence anisotropy
[3]
  binding by SEC-MALS: did not bind
pMad1CTD
  NMR signal attenuation / line broadening: more pronounced and extensive; also recorded: More significant signal attenuation
[4]
  aggregation or non-specific binding to the plate: large increases in the total fluorescence intensity indicating aggregation or non-specific binding to the plate
[5]
  binding by SEC-MALS: did not bind; also recorded: no binding
pMad1CTD (Mad1CTD pT716); 1:1.2 ratio Mad1CTD dimer to Cdc20N
  binding by SEC-MALS: formed a stable complex
pMad1CTD (Mad1CTD pT716); SEC-MALS, expected 36 kDa for pMad1CTD dimer with one Cdc20N
  observed mass of pMad1CTD:Cdc20N complex: 38 kDa
[6]
  change in fluorescence anisotropy on Cdc20N titration (competition test): increased the fluorescence anisotropy
